Molecular target: C3d (human), P01024
Assay: SPR; C3d amine-coupled to a different flow cell of the same C1 chip; CFH (from 2.5 to 0.019 uM), or 0.6 uM CFH premixed with 1.2 uM PspCN, flowed over; equilibrium plots
Settings: remark: other sources report otherwise

Chain of C3d (human), P01024 (P01024 1002-1303): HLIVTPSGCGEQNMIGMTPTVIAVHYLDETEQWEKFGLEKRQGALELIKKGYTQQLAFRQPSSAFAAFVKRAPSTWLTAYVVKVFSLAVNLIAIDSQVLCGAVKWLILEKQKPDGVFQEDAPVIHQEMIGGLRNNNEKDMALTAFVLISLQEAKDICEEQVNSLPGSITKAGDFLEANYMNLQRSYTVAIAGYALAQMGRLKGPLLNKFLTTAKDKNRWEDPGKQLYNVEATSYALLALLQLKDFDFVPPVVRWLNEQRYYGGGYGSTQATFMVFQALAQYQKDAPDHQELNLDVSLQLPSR

B1: V62-CFH (recombinant human complement factor H, variant Val-62, Tyr-402, Glu-936), P08603 19-1231 (natural protein)
chain: EDCNELPPRRNTEILTGSWSDQTYPEGTQAIYKCRPGYRSLGNVIMVCRKGEWVALNPLRKCQKRPCGHPGDTPFGTFTLTGGNVFEYGVKAVYTCNEGYQLLGEINYRECDTDGWTNDIPICEVVKCLPVTAPENGKIVSSAMEPDREYHFGQAVRFVCNSGYKIEGDEEMHCSDDGFWSKEKPKCVEISCKSPDVINGSPISQKIIYKENERFQYKCNMGYEYSERGDAVCTESGWRPLPSCEEKSCDNPYIPNGDYSPLRIKHRTGDEITYQCRNGFYPATRGNTAKCTSTGWIPAPRCTLKPCDYPDIKHGGLYHENMRRPYFPVAVGKYYSYYCDEHFETPSGSYWDHIHCTQDGWSPAVPCLRKCYFPYLENGYNQNYGRKFVQGKSIDVACHPGYALPKAQTTVTCMENGWSPTPRCIRVKTCSKSSIDIENGFISESQYTYALKEKAKYQCKLGYVTADGETSGSITCGKDGWSAQPTCIKSCDIPVFMNARTKNDFTWFKLNDTLDYECHDGYESNTGSTTGSIVCGYNGWSDLPICYERECELPKIDVHLVPDRKKDQYKVGEVLKFSCKPGFTIVGPNSVQCYHFGLSPDLPICKEQVQSCGPPPELLNGNVKEKTKEEYGHSEVVEYYCNPRFLMKGPNKIQCVDGEWTTLPVCIVEESTCGDIPELEHGWAQLSSPPYYYGDSVEFNCSESFTMIGHRSITCIHGVWTQLPQCVAIDKLKKCKSSNLIILEEHLKNKKEFDHNSNIRYRCRGKEGWIHTVCINGRWDPEVNCSMAQIQLCPPPPQIPNSHNMTTTLNYRDGEKVSVLCQENYLIQEGEEITCKDGRWQSIPLCVEKIPCSQPPQIEHGTINSSRSSQESYAHGTKLSYTCEGGFRISEENETTCYMGKWSSPPQCEGLPCKSPPEISHGVVAHMSDSYQYGEEVTYKCFEGFGIDGPAIAKCLGEKWSHPPSCIKTDCLSLPSFENAIPMGEKKDVYKAGEQVTYTCATYYKMDGASNVTCINSRWTGRPTCRDTSCVNPPTVQNAYIVSRQMSKYPSGERVRYQCRSPYEMFGDEEVMCLNGNWTEPPQCKDSTGKCGPPPPIDNGDITSFPLSVYAPASSVEYQCQNLYQLEGNKRITCRNGQWSEPPKCLHPCVISREIMENYNIALRWTAKQKLYSRTGESVEFVCKRGYRLSSRSHTLRTTCWDGKLEYPTCAKR
modifications: here or on the partner: N-glycans trimmed to the first GlcNAc residues (EndoHf)
With B1 as the binder, how does the Kd read?
The Kd was 2.1 µM.

Reference: paper PMC5555194
